Laboratory results reported in patent US20120230990A1 (MERCK SERONO, published 2012).

What was measured:
[1] = target: T1, mouse IL-22RA-ECD (mouse, UniProt Q80XZ4 16-230); assay: KinExA and Biacore, IL-22RA-ECD with 6 His tag
T1 construct: extracellular domain; Produced in HEK-293 cells and NiNTA-purified; not shown: 6 His tag
T1 sequence (looked up): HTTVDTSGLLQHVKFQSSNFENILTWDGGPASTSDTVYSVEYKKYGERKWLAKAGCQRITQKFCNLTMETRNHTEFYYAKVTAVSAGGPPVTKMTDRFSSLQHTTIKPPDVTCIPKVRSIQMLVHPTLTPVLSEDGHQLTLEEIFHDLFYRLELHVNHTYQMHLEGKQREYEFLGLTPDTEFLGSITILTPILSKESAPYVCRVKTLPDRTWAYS

[2] = target: T2, human IL-22RA on cells (HepG2 hepatoma cells, normal human keratinocytes, BaF3 cells transfected with human … (human, UniProt Q8N6P7 16-574)); assay: cell-based or functional assay
T2 sequence: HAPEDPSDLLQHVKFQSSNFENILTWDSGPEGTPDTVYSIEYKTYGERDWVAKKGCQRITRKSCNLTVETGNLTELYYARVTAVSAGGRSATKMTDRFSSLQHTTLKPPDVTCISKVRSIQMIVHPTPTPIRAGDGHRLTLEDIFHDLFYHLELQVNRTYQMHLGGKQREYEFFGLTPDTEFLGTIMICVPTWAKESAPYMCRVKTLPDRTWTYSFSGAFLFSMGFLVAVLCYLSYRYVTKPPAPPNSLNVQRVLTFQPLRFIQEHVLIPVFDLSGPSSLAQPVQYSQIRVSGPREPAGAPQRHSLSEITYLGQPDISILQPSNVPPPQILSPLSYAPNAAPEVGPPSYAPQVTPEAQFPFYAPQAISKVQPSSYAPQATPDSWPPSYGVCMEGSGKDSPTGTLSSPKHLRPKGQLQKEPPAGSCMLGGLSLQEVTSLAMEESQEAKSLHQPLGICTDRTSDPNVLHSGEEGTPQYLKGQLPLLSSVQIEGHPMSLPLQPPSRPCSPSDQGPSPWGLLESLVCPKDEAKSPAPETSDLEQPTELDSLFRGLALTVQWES

[3] = target: T3, murine IL-22RA on cells (HEPA1-6 hepatoma cells, BaF3 cells transfected with murine IL-22RA and IL-10RB) (murine, UniProt Q80XZ4 16-581); assay: cell-based or functional assay
T3 sequence (looked up): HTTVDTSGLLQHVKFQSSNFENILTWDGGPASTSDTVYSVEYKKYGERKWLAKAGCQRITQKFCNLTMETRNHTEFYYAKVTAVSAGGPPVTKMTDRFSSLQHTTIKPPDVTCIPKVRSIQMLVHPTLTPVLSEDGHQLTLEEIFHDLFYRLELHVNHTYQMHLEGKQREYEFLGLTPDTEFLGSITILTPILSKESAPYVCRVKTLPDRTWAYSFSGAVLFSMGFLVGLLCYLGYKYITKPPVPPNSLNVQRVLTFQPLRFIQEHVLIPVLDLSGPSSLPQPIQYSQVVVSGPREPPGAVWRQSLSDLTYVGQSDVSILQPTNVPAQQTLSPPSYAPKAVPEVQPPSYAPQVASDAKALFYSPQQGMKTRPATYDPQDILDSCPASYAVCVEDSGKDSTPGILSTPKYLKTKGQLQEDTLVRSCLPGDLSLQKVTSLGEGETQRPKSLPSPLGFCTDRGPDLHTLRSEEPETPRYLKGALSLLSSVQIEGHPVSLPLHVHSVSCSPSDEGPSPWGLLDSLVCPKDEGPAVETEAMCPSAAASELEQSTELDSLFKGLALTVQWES

- fold lower affinity compared to human IL-22RA [1]: ~100 fold
- IC50, STAT3 phosphorylation assay in human HepG2 hepatoma cells stimulated with recombinant human IL-22 [2]: 0.0552 nM
- IC50, STAT3 phosphorylation assay in normal human keratinocytes stimulated with recombinant human IL-22 [2]: 0.061 nM
- IC50, proliferation assay in BaF3 cells transfected with human IL-22RA and IL-10RB, cultured with recombinant human IL-22 [2]: 0.317 nM
- fold potency against the mouse parental antibody 280.46.3.4, STAT3 phosphorylation assay in HepG2 cells [2]: ~5 fold
- fold potency against the mouse parental antibody 280.46.3.4, STAT3 phosphorylation assay in normal human keratinocytes [2]: ~9 fold
- fold potency against the mouse parental antibody 280.46.3.4, proliferation of human IL-22 receptor transfected BaF3 cells [2]: 1.7 fold
- IC50, STAT3 phosphorylation assay in murine HEPA1-6 hepatoma cells stimulated with recombinant murine IL-22 [3]: 2.1 nM
- IC50, proliferation assay in BaF3 cells transfected with murine IL-22RA and IL-10RB, cultured with recombinant murine IL-22 [3]: 0.137 nM
- fold potency against the mouse parental antibody 280.46.3.4, proliferation of mouse IL-22 receptor transfected BaF3 cells [3]: 6.2 fold
B1: 280.346.TSY (humanized anti-human IL-22RA antibody comprising 280.VH3-66-46 paired with 280.VK4-1-TSY, human IgG1/kappa) (antibody, V domains shown)
VH: EVQLVESGGGLVQPGGSLRLSCAASGYSITAEYMNWVRQAPGKGLEWIGEINPSTGTTTYNQKFKGRFTISVDQSKNTAYLQMNSLRAEDTAVYYCARFDAYFDYWGQGTLVTVSS
VL: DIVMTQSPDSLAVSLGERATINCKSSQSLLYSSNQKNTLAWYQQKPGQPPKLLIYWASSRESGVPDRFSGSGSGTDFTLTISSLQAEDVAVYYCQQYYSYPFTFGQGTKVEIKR
notes: Produced in CHO cells; also called 280.VH3-66-46/VK4-1-TSY; 280.VH3-66.46 paired with 280.IGKV4-1-TSY
